Measured values taken from patent US20240261333A1 (published 2024).

B1: C-terminal FLAG tagged B3GNT2 (enzyme, human, UniProt Q9NY97 1-397, looked up)
chain: MSVGRRRIKLLGILMMANVFIYFIMEVSKSSSQEKNGKGEVIIPKEKFWKISTPPEAYWNREQEKLNRQYNPILSMLTNQTGEAGRLSNISHLNYCEPDLRVTSVVTGFNNLPDRFKDFLLYLRCRNYSLLIDQPDKCAKKPFLLLAIKSLTPHFARRQAIRESWGQESNAGNQTVVRVFLLGQTPPEDNHPDLSDMLKFESEKHQDILMWNYRDTFFNLSLKEVLFLRWVSTSCPDTEFVFKGDDDVFVNTHHILNYLNSLSKTKAKDLFIGDVIHNAGPHRDKKLKYYIPEVVYSGLYPPYAGGGGFLYSGHLALRLYHITDQVHLYPIDDVYTGMCLQKLGLVPEKHKGFRTFDIEEKNKNNICSYVDLMLVHSRKPQEMIDIWSQLQSAHLKC
notes: FLAG-tagged ORF overexpressed in cells; pulled down from lysate with mouse anti-FLAG; also called C-FLAG B3GNT2; C-term flag; not shown: C-terminal FLAG tag
B2: C-terminal FLAG tagged B3GNT2 (enzyme, human, UniProt Q9NY97 1-397, looked up)
chain: B1 chain
notes: FLAG-tagged ORF overexpressed in A375 cells; pulled down from the lysate with mouse anti-FLAG; also called C-FLAG B3GNT2; C-term flag; not shown: C-terminal FLAG tag

What was measured:
Test in all cases: co-IP with anti-FLAG, C-FLAG B3GNT2, mass spectrometry
IMMT = target: T1, IMMT (human, UniProt Q16891-4 34-757, limits assumed)
T1 construct: also called NP_001093639.1 (+3)
T1 sequence (looked up): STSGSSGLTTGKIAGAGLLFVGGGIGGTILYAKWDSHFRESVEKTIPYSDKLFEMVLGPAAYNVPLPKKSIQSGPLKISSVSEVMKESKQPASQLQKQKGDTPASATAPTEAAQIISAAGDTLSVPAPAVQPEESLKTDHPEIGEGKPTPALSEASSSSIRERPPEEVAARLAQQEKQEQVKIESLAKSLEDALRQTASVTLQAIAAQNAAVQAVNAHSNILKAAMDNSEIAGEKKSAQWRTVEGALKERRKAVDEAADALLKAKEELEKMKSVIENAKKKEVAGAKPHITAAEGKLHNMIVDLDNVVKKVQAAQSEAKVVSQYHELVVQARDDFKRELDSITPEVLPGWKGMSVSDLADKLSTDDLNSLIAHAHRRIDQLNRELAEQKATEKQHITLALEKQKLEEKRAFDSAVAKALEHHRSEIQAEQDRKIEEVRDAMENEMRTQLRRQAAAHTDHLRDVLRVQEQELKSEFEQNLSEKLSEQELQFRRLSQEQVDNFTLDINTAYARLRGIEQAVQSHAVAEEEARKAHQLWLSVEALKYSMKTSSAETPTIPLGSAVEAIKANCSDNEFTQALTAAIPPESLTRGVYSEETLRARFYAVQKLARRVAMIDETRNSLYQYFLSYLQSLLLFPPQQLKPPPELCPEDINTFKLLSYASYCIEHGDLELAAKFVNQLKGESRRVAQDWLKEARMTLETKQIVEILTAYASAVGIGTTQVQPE

HNRNPM = target: T2, HNRNPM (human, UniProt P52272 2-730)
T2 construct: also called NP_005959.2 (+1)
T2 sequence (looked up): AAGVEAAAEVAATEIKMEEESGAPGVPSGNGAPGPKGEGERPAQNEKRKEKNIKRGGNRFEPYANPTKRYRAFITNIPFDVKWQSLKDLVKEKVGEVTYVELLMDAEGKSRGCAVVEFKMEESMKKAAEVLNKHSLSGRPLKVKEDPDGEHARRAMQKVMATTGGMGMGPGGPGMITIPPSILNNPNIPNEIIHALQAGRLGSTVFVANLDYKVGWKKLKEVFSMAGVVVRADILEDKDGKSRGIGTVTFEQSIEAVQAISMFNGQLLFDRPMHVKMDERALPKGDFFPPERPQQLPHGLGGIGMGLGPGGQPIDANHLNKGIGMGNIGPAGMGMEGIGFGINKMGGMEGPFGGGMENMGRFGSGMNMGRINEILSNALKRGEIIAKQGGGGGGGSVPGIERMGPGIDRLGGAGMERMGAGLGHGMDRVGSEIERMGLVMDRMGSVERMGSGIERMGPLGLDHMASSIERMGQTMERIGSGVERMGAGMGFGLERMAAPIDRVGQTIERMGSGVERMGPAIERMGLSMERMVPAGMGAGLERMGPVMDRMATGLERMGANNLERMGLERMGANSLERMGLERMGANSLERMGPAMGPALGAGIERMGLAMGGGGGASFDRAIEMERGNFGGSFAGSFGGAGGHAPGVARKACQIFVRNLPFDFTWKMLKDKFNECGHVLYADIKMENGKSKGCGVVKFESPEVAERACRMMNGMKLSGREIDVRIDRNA

DDX3X = target: T3, DDX3X (human, UniProt O00571 2-662)
T3 construct: also called NP_001180345.1 (+1)

CPSF7 = target: T4, CPSF7 (human, UniProt Q8N684 1-471)
T4 construct: also called NP_001129512.1 (+5)
T4 sequence (looked up): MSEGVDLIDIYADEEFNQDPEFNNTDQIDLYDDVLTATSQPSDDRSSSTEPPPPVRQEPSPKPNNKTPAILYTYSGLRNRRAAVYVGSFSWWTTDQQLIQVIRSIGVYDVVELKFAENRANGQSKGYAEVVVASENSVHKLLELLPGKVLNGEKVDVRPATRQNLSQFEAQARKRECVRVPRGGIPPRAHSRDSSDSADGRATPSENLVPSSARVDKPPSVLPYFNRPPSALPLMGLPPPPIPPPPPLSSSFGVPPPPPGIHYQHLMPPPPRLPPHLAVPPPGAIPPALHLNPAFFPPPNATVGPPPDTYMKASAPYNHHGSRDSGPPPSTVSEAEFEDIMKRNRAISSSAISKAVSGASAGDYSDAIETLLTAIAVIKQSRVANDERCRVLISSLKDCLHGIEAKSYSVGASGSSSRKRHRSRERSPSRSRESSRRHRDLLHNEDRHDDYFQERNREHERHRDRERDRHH

T3 sequence (O00571 2-662 limits assumed): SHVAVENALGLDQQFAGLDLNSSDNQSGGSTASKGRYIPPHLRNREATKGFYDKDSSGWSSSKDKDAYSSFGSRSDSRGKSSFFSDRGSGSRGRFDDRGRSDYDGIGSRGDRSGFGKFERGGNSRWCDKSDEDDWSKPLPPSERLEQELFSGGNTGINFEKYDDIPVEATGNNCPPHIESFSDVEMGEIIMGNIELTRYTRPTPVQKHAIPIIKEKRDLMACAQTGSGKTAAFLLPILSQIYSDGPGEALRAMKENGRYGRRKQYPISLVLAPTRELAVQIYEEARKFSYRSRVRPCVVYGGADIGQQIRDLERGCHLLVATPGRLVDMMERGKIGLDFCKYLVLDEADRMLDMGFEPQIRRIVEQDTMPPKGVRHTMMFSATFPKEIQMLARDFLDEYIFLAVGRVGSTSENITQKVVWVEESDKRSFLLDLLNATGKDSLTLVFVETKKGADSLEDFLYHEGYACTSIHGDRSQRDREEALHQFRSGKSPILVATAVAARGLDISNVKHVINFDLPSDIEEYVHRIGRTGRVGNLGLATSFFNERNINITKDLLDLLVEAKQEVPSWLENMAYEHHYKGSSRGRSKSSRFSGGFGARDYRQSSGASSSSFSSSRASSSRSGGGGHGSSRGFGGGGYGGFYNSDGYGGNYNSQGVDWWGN

| Binder | co-IP mass spectrometry count (IMMT) | co-IP mass spectrometry count (HNRNPM) | co-IP/MS count, C-term flag (DDX3X) | co-IP/MS count, C-term flag (CPSF7) |
| --- | --- | --- | --- | --- |
| B1 | 26 | 8 | – | – |
| B2 | – | – | 23 | 9 |
